Holding throughout (test): SPR
Holding throughout (conditions): remark: other sources report otherwise

Assay [1] concerns the target SARS-CoV-2 S RBD (K417N) (SARS-CoV-2), P0DTC2.
The target in assay [2] is SARS-CoV-2 S RBD (N501Y) (SARS-CoV-2), P0DTC2.
In assay [3] the target is SARS-CoV-2 S RBD (Y453F) (SARS-CoV-2), P0DTC2.
In assay [4] the target is SARS-CoV-2 S1 (D614G) (SARS-CoV-2), P0DTC2.
For assay [5], the target named is SARS-CoV-2 S1 (HV69-70del, Y144del, N501Y, A570D, D614G, P681H) (SARS-CoV-2), P0DTC2.

This note sets out measurements from US20230002478A1.

B1: 6-63 (Fc fusion)
chain: EVQLVESGGGLVQPGGSLRLSCAASGQTFNMGWFRQAPGKEREFVAAIGSGGSTSYADSVKGRFTISADNSKNTAYLQMNSLKPEDTAVYYCWRLGNDYFDYWGQGTLVTVSS
For orientation: Kd means a measure of binding affinity in units of concentration. Read a low Kd as higher affinity. As to B1, the Kd was determined as 14 nM in assay [1]; 3.8 nM in assay [2]; 5.4 nM in assay [3]; 95 nM in assay [4]; 80 nM in assay [5].
